Assay results: patent US20060153807A1, “Vector-mediated gene regulation in midbrain dopamine neurons” (priority 2005, published 2006)
Substitutions are numbered along the chain they refer to. Numbers in names are those of the source. Values belong to the molecule of their own block, whether it stands above or below them.

Tests used:
[1] = tested on: glutathione S-transferase (GST); settings: GST 0.4 μM, test protein 2 μM
Procedure: DJ-1 chaperone activity was quantified in the suppression of heat-induced aggregation of citrate synthase (CS) and glutathione S-transferase (GST), two well-characterized protein chaperone assays. These proteins lose their native conformation and undergo aggregation during incubation at 43° C. and 60° C., respectively.

insulin = assay: aggregation suppression of reduced insulin (DTT-induced B chain aggregation); format: biochemical; settings: 20 mM DTT
Procedure: (§1) FIG. 22 illustrates that DJ-1 is a redox-dependent molecular chaperone. (A) Aggregation of CS was monitored at 43° C. after addition of either 0.8 μM CS alone (black), or along with 8.0 μM RNase A (purple), 0.5 μM DJ-1 (aqua), 2.0 μM DJ-1 (blue), 4.0 μM DJ-1 (red), or 2.0 μM Hsp27 (green). (B) Aggregation of 0.8 μM CS after 30 min at 4° C. […] (C) Aggregation of insulin (26 μM) B chains induced by 20 mM DTT at 25° C. Insulin alone (black) or in the presence of 4.0 μM RNase A (purple), 0.5 μM DJ-1 (aqua), 2.0 μM DJ-1 (blue), 4.0 μM DJ-1 (red), or 2.0 μM Hsp27 (green). (D) CS thermal aggregation (unfilled bar) is suppressed by 4 μM DJ-1 (black bar), but chaperone activity is abrogated upon incubation of DJ-1 with 0.5 mM DTT for 10 min at 4° C. (gray bar). Further treatment of DTT-reduced DJ-1 with 10 mM H2O2 for 10 min at 4° C. leads to reactivation of CS suppression (hatched bar).
(§2) Aggregation assays. CS aggregation was performed in 40 mM HEPES (pH 7.8), 20 mM potassium hydroxinde, 50 mM potassium chloride, and 10 mM ammonium sulfate, and monitored in a thermostat-controlled fluorescence spectrophotometer with excitation and emission wavelengths at 500 nm and slit widths at 2.5 nm. Insulin aggregation was performed as described (Giasson et al. 2000). CS, insulin, RNase A, and GST were obtained from Sigma; human Hsp27 was obtained from Stressgen.

αSyn = αSyn (Homo sapiens, UniProt P37840); assay: αSyn protofibril formation assay in vitro; format: biochemical; settings: 200 μM αSyn, 100 μM test protein (molar ratio 1:2), 2 h at 55° C.
Procedure: The analysis of DJ-1 chaperone function to a candidate DJ-1 substrate, αSyn (FIG. 23) was extended.
αSyn protofibril and fibril formation assays were performed essentially as described (Uversky et al.). Briefly, protofibrils were formed by incubation of 200 μM WT synuclein with 100 μM DJ-1 or control chaperone protein in PBS for 2 h at 55° C. Samples were mixed with SDS loading buffer and analyzed by SDS-PAGE and Western blotting using αSyn LB509 antibody (Zymed). Quantitation of high molecular weight αSyn was performed using NIH Image J. Integrated pixel intensity of high molecular weight synuclein for each sample was normalized to monomeric synuclein intensity.

citrate synthase (CS) = target: T1, citrate synthase (CS) (Sus scrofa, UniProt P00889); assay: suppression of heat-induced aggregation of citrate synthase (chaperone assay); format: biochemical; settings: for redox regulation: chaperone activity in the CS aggregation assay after DTT: preincubation with 0.5 mM DTT for 10 min at 4° C.; for chaperone activity: suppression of heat-induced CS aggregation: 0.8 μM CS, 43° C., DJ-1 0.5-4.0 μM
T1 construct: purchased Sigma
T1 sequence (P00889 28-464): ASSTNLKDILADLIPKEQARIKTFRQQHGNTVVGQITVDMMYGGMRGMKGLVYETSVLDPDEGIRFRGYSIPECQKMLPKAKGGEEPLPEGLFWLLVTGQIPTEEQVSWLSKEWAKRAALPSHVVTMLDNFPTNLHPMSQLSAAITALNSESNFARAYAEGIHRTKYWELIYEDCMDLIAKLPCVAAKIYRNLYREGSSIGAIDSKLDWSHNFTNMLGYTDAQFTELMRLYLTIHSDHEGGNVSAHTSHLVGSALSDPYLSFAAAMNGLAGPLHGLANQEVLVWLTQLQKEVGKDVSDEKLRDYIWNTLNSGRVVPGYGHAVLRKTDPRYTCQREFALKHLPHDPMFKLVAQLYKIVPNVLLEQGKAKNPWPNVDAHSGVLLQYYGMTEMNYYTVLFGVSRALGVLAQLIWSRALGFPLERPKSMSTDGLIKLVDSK
Procedure: as §1
To test the redox regulation of DJ-1, the inventors assayed chaperone activity in the CS aggregation assay in the presence or absence of the reducing agent DTT. […] (FIG. 22D). […] To further test whether redox regulation might govern DJ-1 chaperone activity, reactivation studies using reduced DJ-1 were performed. DTT-reduced DJ-1 was incubated with H2O2 (10 mM in aggregation buffer for 10 min at 4° C. followed by dialysis against aggregation buffer for 2 h), and subsequently chaperone activity was measured in the CS thermal aggregation assay. […] This was not an indirect effect of residual H2O2 on CS aggregation, as H2O2 treatment of CS increased aggregation (unpublished data).
as §2

DJ-1-deficient ES cells = assay: rescue of DJ-1-deficient ES cells from H2O2 toxicity, MTT assay; settings: transient transfection of expression plasmid, 10 μM H2O2 for 15 h, vs vector alone
[2] = tested on: Undifferentiated ES cells; assay: rescue from Q333P mutant NFL toxicity in undifferentiated ES cells, MTT reduction assay; format: cell-based; settings: 72 h after transfection
Procedure: FIG. 30 depicts the additional studies of DJ-1 mutations. […] Cells from FIG. 4M were quantified via ToPro3 nuclear staining and are expressed as number of cells per field from ten independent fields in each of three wells. […] GFP positive transfected cells from FIG. 5A-5L were quantified and are expressed as number of transfected cells per field from ten independent fields in each of three wells. […] After 72 h, cells were assayed by MTT reduction assay (which detects reduction of 3-(4,5-dimethylthiazol-2-yl)-2,5-diphenyltetrazolium bromide by metabolic enzymes) (Martinat et al. 2004). […] Undifferentiated ES cells were transfected with Q333P mutant NFL along with WT human DJ-1, C53A mutant DJ-1, or vector control. After 72 h, cells were assayed by MTT reduction assay (Martinat et al. 2004). […] Cells were differentiated for 72 h and lysed to produce Triton X-100-soluble and -insoluble fractions. Lysates were exposed to Western blotting with an antibody against transfected human NFL.

Molecule: Hsp27: well-described small cytoplasmic chaperone, human Hsp27, obtained from Stressgen; positive control [reference compound]
suppression of GST thermal aggregation [1]: suppressed | chaperone activity: suppression of reduced insulin aggregation (insulin): effectively inhibited the aggregation of insulin | inhibition of αSyn protofibril formation (αSyn): failed to inhibit the generation of αSyn protofibrils | redox regulation: chaperone activity in the CS aggregation assay after DTT (citrate synthase (CS)): did not modify suppression of CS aggregation

B3: RNase A: negative control protein, obtained from Sigma (protein, UniProt P61823 27-150, looked up)
Ribonuclease pancreatic: KETAAAKFERQHMDSSTSAASSSNYCNQMMKSRNLTKDRCKPVNTFVHESLADVQAVCSQKNVACKNGQTNCYQSYSTMSITDCRETGSSKYPNCAYKTTQANKHIIVACEGNPYVPVHFDASV
chaperone activity: suppression of reduced insulin aggregation (insulin): neither DJ-1 nor the negative control protein RNase A displayed chaperone activity | chaperone activity: suppression of heat-induced CS aggregation (citrate synthase (CS)): failed to demonstrate chaperone activity

Continued, in another order:

chaperone activity: suppression of heat-induced CS aggregation (citrate synthase (CS)): does not alter the basal activity | redox regulation: chaperone activity in the CS aggregation assay after DTT (citrate synthase (CS)): unaffected
B1: C106A: DJ-1 cysteine-to-alanine mutant at cysteine 106 (protein, UniProt Q99497 1-189, looked up, variant C106A)
chain: MASKRALVILAKGAEEMETVIPVDVMRRAGIKVTVAGLAGKDPVQCSRDVVICPDASLEDAKKEGPYDVVVLPGGNLGAQNLSESAAVKEILKEQENRKGLIAAIAAGPTALLAHEIGFGSKVTTHPLAKDKMMNGGHYTYSENRVEKDGLILTSRGPGTSFEFALAIVEALNGKEVAAQVKAPLVLKD
viability of H2O2-treated DJ-1 knockout cells after transfection (DJ-1-deficient ES cells): robustly rescued DJ-1 knockout cells from H2O2 toxicity

chaperone activity: suppression of heat-induced CS aggregation (citrate synthase (CS)): completely abrogates chaperone activity
B2: C53A: DJ-1 cysteine-to-alanine mutant at cysteine 53 (protein, UniProt Q99497 1-189, looked up, variant C53A)
chain: B1 chain with C53A, A106C
viability of H2O2-treated DJ-1 knockout cells after transfection (DJ-1-deficient ES cells): failed to protect from H2O2 toxicity | rescue from Q333P mutant NFL toxicity [2]: unable to rescue cells from Q333P mutant NFL toxicity
